Measured values published in the RNAGym collection of RNA variant scans (doi:10.1093/molbev/msab373).

B1: Azoarcus group I ribozyme (parent)
chain: GUGCCUUGCGCCGGGAAACCACGCAAGGGAUGGUGUCAAAUUCGGCGAAACCUAAGCGCCCGCCCGGGCGUAUGGCAACGCCGAGCCAAGCUUCGGCGCCUGCGCCGAUGAAGGUGUAGAGACUAGACGGCACCCACCUAAGGCAAACGCUAUGGUGAAGGCAUAGUCCAGGGAGUGGCGAAAGUCACACAAACCGG

Variants of: B1
Assay: reverse-splicing fitness (ratio to wild type); higher = more active; in vitro selection; Mg2+ level not given
Outline: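 An in vitro group I ribozyme library with randomized positions was T7-transcribed and gel-purified. In triplicate, 10 pmol RNA in EPPS pH 7.5 was reacted with 50 pmoles of a 30-nt RNA substrate for 1 h at 37 °C across several added MgCl2 levels (1–48 mM), then stopped with EDTA. Products were reverse transcribed from a substrate-complementary primer, PCR-amplified and sequenced (HiSeq 4000). Fitness is a variant's read proportion after selection over that before, normalised to wild type.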

Variant	reverse-splicing fitness
GUGCCUUGCGCCGGGAAACCACGCAAGGGAUGGUGUCAAAUUCGGCGAAACCUAAGCGCCCGCCCGGGCGUAUGGCAACGCGGAGCCAAGCUUCGGCGCCUGCGCCGAUGUAGGUGUAGUGACUAGACGGCACCCACCUAAGGCCAACGCUAUGGUGAAGGCAUAGUCGAGGGAGAGGCGAAAGUCACACAAACCGG [C82G A111U A120U A145C C169G U176A]	0.00225
GUGCCUUGCGCCGGGAAACCACGCAAGGGAUGGUGUCAAAUUCGGCGAAACCUAAGCGCCCGCCCGGGCGUAUGGCAACGCGGAGCCAAGCUUCGGCGCCUGCGCCGAUGUAGGUGUAGUGACUAGACGGCACCCACCUAAGGCCAACGCUAUGGUGAAGGCAUAGUCGAGGGAGGGGCGAAAGUCACACAAACCGG [C82G A111U A120U A145C C169G U176G]	0.00158
GUGCCUUGCGCCGGGAAACCACGCAAGGGAUGGUGUCAAAUUCGGCGAAACCUAAGCGCCCGCCCGGGCGUAUGGCAACGCGGAGCCAAGCUUCGGCGCCUGCGCCGAUGUAGGUGUAGUGACUAGACGGCACCCACCUAAGGCCAACGCUAUGGUGAAGGCAUAGUCGAGGGAGCGGCGAAAGUCACACAAACCGG [C82G A111U A120U A145C C169G U176C]	0.00219
GUGCCUUGCGCCGGGAAACCACGCAAGGGAUGGUGUCAAAUUCGGCGAAACCUAAGCGCCCGCCCGGGCGUAUGGCAACGCGGAGCCAAGCUUCGGCGCCUGCGCCGAUGUAGGUGUAGUGACUAGACGGCACCCACCUAAGGCCAACGGUAUGGUGAAGGCAUAGUCUAGGGAGCGGCGAAAGUCACACAAACCGG [C82G A111U A120U A145C C150G C169U U176C]	0.00279
GUGCCUUGCGCCGGGAAACCACGCAAGGGAUGGUGUCAAAUUCGGCGAAACCUAAGCGCCCGCCCGGGCGUAUGGCAACGCGGAGCCAAGCUUCGGCGCCUGCGCCGAUGUAGGUGUAGUGACUAGACGGCACCCACCUAAGGCCAACGGUAUGGUGAAGGCAUAGUCUAGGGAGGGGCGAAAGUCACACAAACCGG [C82G A111U A120U A145C C150G C169U U176G]	0.00252
GUGCCUUGCGCCGGGAAACCACGCAAGGGAUGGUGUCAAAUUCGGCGAAACCUAAGCGCCCGCCCGGGCGUAUGGCAACGCGGAGCCAAGCUUCGGCGCCUGCGCCGAUGUAGGUGUAGUGACUAGACGGCACCCACCUAAGGCCAACGCUAUGGUGAAGGCAUAGUCUAGGGAGUGGCGAAAGUCACACAAACCGG [C82G A111U A120U A145C C169U]	0.00386
GUGCCUUGCGCCGGGAAACCACGCAAGGGAUGGUGUCAAAUUCGGCGAAACCUAAGCGCCCGCCCGGGCGUAUGGCAACGCGGAGCCAAGCUUCGGCGCCUGCGCCGAUGUAGGUGUAGUGACUAGACGGCACCCACCUAAGGCCAACGCUAUGGUGAAGGCAUAGUCAAGGGAGUGGCGAAAGUCACACAAACCGG [C82G A111U A120U A145C C169A]	0.00222
GUGCCUUGCGCCGGGAAACCACGCAAGGGAUGGUGUCAAAUUCGGCGAAACCUAAGCGCCCGCCCGGGCGUAUGGCAACGCGGAGCCAAGCUUCGGCGCCUGCGCCGAUGUAGGUGUAGUGACUAGACGGCACCCACCUAAGGCCAACGCUAUGGUGAAGGCAUAGUCGAGGGAGUGGCGAAAGUCACACAAACCGG [C82G A111U A120U A145C C169G]	0.00383
GUGCCUUGCGCCGGGAAACCACGCAAGGGAUGGUGUCAAAUUCGGCGAAACCUAAGCGCCCGCCCGGGCGUAUGGCAACGCGGAGCCAAGCUUCGGCGCCUGCGCCGAUGUAGGUGUAGUGACUAGACGGCACCCACCUAAGGCCAACGUUAUGGUGAAGGCAUAGUCUAGGGAGUGGCGAAAGUCACACAAACCGG [C82G A111U A120U A145C C150U C169U]	0.00298
GUGCCUUGCGCCGGGAAACCACGCAAGGGAUGGUGUCAAAUUCGGCGAAACCUAAGCGCCCGCCCGGGCGUAUGGCAACGCGGAGCCAAGCUUCGGCGCCUGCGCCGAUGUAGGUGUAGUGACUAGACGGCACCCACCUAAGGCCAACGUUAUGGUGAAGGCAUAGUCGAGGGAGUGGCGAAAGUCACACAAACCGG [C82G A111U A120U A145C C150U C169G]	0.00286
GUGCCUUGCGCCGGGAAACCACGCAAGGGAUGGUGUCAAAUUCGGCGAAACCUAAGCGCCCGCCCGGGCGUAUGGCAACGCGGAGCCAAGCUUCGGCGCCUGCGCCGAUGUAGGUGUAGUGACUAGACGGCACCCACCUAAGGCCAACGUUAUGGUGAAGGCAUAGUCAAGGGAGUGGCGAAAGUCACACAAACCGG [C82G A111U A120U A145C C150U C169A]	0.00282
GUGCCUUGCGCCGGGAAACCACGCAAGGGAUGGUGUCAAAUUCGGCGAAACCUAAGCGCCCGCCCGGGCGUAUGGCAACGCGGAGCCAAGCUUCGGCGCCUGCGCCGAUGUAGGUGUAGUGACUAGACGGCACCCACCUAAGGCCAACGCUAUGGUGAAGGCAUAGUCAAGGGAGAGGCGAAAGUCACACAAACCGG [C82G A111U A120U A145C C169A U176A]	0.00191
GUGCCUUGCGCCGGGAAACCACGCAAGGGAUGGUGUCAAAUUCGGCGAAACCUAAGCGCCCGCCCGGGCGUAUGGCAACGCGGAGCCAAGCUUCGGCGCCUGCGCCGAUGUAGGUGUAGUGACUAGACGGCACCCACCUAAGGCCAACGCUAUGGUGAAGGCAUAGUCAAGGGAGCGGCGAAAGUCACACAAACCGG [C82G A111U A120U A145C C169A U176C]	0.00232
GUGCCUUGCGCCGGGAAACCACGCAAGGGAUGGUGUCAAAUUCGGCGAAACCUAAGCGCCCGCCCGGGCGUAUGGCAACGCGGAGCCAAGCUUCGGCGCCUGCGCCGAUGUAGGUGUAGUGACUAGACGGCACCCACCUAAGGCCAACGCUAUGGUGAAGGCAUAGUCAAGGGAGGGGCGAAAGUCACACAAACCGG [C82G A111U A120U A145C C169A U176G]	0.00205
GUGCCUUGCGCCGGGAAACCACGCAAGGGAUGGUGUCAAAUUCGGCGAAACCUAAGCGCCCGCCCGGGCGUAUGGCAACGCGGAGCCAAGCUUCGGCGCCUGCGCCGAUGUAGGUGUAGUGACUAGACGGCACCCACCUAAGGCCAACGUUAUGGUGAAGGCAUAGUCGAGGGAGCGGCGAAAGUCACACAAACCGG [C82G A111U A120U A145C C150U C169G U176C]	0.00262
